Measured values as given in paper PMC6877527, “Sugar-mediated regulation of a c-di-GMP phosphodiesterase in Vibrio cholerae” (Nature Communications, 2019).

Experiments:
VC1710 (PdeS) = molecular target: T1, VC1710 (PdeS) (Vibrio cholerae, UniProt Q9KRD2); test: biochemical
T1 construct: gene VC_1710

GST-PdeS (V. cholerae) = test: MST; NanoTemper Monolith NT.115pico; GST-PdeS labeled with NT-647 at 4.875 nM; unlabeled EIIA^Glc titrated in 1:1 serial dilutions from 21.9 uM; 25 mM HEPES-NaOH pH 7.6, 100 mM NaCl, 5 mM beta-mercaptoethanol, 0.5 mg/ml BSA, 0.05% Tween 20; 15% LED power, 30% MST power, 22 C

Compound	Kd (VC1710 (PdeS))	Kd (GST-PdeS (V. cholerae))
Nc1nc2c(ncn2[C@@H]2O[C@@H]3CO[P@](=O)(O)O[C@H]4[C@@H](O)[C@H](n5cnc6c(=O)[nH]c(N)nc65)O[C@@H]4CO[P@](=O)(O)O[C@H]3[C@H]2O)c(=O)[nH]1 [c-di-GMP]	~8700 nM	–
hexahistidine-tagged EIIA^Glc, dephosphorylated form (natural protein)	–	114 nM
hexahistidine-tagged EIIA^Glc, phosphorylated form (natural protein)	–	287 nM
